The labels stand for the following.
B1: TPR t1 (parent)
chain: GACCAAUCUGCCCUCAGAGCUCGAGAACAUCUUCGGAUGCAGAGGAGGCAGGCUUCGGUGGCGCGAUAGCGCCAACGUCCUCAACCUCCAAUGCAUCCCACCACAUGAUGAUGCCUGAAGAGCCUUGGUUUUUUG

The variants in this series derive from B1. The series is described as follows: polymerase ribozyme fitness, log enrichment relative to wild type (log ratio); higher = more active; in vitro selection for triplet polymerase activity. In short, it runs like this: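 One round of in vitro selection, in triplicate, was applied to PCR-built, transcribed mutant libraries of each subunit of a heterodimeric triplet polymerase ribozyme. The steps were annealing with a biotinylated primer, partner subunit and triplets, incubation frozen at −7 °C, gel excision of extended constructs, streptavidin-bead capture and RT-PCR. Fitness is the logarithm, base 2, of genotype enrichment over wild-type enrichment from inverse-variance-weighted replicate averages of Illumina-sequenced inputs and outputs, keeping genotypes with ≥10 input reads and ≥1 read per output.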
Regarding C64U G120A G135A, the “polymerase ribozyme fitness (log ratio)” value came out at 0.278.
The value for G63A C72G was -3.11.
For the variant C64U U116G G117C, the “polymerase ribozyme fitness (log ratio)” value is -2.86.
With A66C A90G C114G the figure was -4.05; with C64U C94A, -0.615; with G63C A90U, -2.23.
With G63C A90C the figure was -2.06; with G69A U125A, -3.21.
With A66C G69A C123U U126A the figure was -4.63; with G69U C88A A90U, 0.178; with G69A G117A, -3.78.
As for G69A G117C, the “polymerase ribozyme fitness (log ratio)” value is -5.44.
G69C G77U U87A G117U: the “polymerase ribozyme fitness (log ratio)” value was -5.49.
With A66C C94U the figure was -0.92; with G63U A84U C86A G128U U130C, -3.81.
As to A66U C98U, the “polymerase ribozyme fitness (log ratio)” value is -1.9.
For the variant G63A C70G C73A, the “polymerase ribozyme fitness (log ratio)” value is -5.82.
As for G63A C89U, the “polymerase ribozyme fitness (log ratio)” value is -1.62.
With G63A C89G the figure was -2.7.
With G69A G127C the figure was -3.47; with G63C C80U, -2.4.
With G63U C94G the figure was -1.4; with G63U C123A, -0.845; with G63A A74U C102U A111U U129G, -5.79.
As for G69U C79U, the “polymerase ribozyme fitness (log ratio)” value is -0.838.
With G63A G113U the figure was -2.82; with G63A G113A, -1.68; with G63C U78C A105C, -3.52.
As for G63U U78G, the “polymerase ribozyme fitness (log ratio)” value is -3.12.
With C64G C98U the figure was -6.14.
In the case of G69A A84U C94U, the “polymerase ribozyme fitness (log ratio)” value is -3.36.
The value for G63C G113U was -3.35; that for C62U G69A was -3.76; that for C64U C86U G110U G122A was -4.18.
The value for G63C C72U G107A C124U was -6.17.
The value for C64U C114U U125A was -2.95.
For G63U C124U, the “polymerase ribozyme fitness (log ratio)” value came out at 0.0528.
G63A G69U C79U: the “polymerase ribozyme fitness (log ratio)” value is -0.72.
As to C64U C82U C89A, the “polymerase ribozyme fitness (log ratio)” value is -1.79.
With G69C G122U U130C the figure was -1.15; with G63U C114A, -3.04.
G63U C114U: the “polymerase ribozyme fitness (log ratio)” value is -3.25.
With G69A U132C the figure was -2.86.
The value for G63A U109C was -2.75.
With A66G U109A the figure was -6.35.
On to G69C A118G, for which the “polymerase ribozyme fitness (log ratio)” value was -1.23.
The value for C64G U112A U126C was -5.9; that for G69C U92A U109G was -6.72; that for G69U C88U was -0.366.
The value for G63A U116C was -0.908; that for C62U C70G C72U G120U was -2.44.
The value for A68G U125A was -3.61; that for G65C C123G was -3.83.
Turning to C64A U133A, the “polymerase ribozyme fitness (log ratio)” value is -6.16.
Regarding U67A G69U, the “polymerase ribozyme fitness (log ratio)” value is -5.08.
With G63C G93U the figure was -1.7; with C62U U78C U106C, -0.597; with C62U U125A, -1.11.
With A68G C73U the figure was -2.42; with G63C U92A U132A, -3.33.
Turning to G69U C98U, the “polymerase ribozyme fitness (log ratio)” value was 0.082.
With G69U C70U, the “polymerase ribozyme fitness (log ratio)” value is -0.561.
As to G69U C70A, the “polymerase ribozyme fitness (log ratio)” value is -1.51.
The value for C62U C98U A111U G120C was -4.23.
The value for C62U C73A G113A was -1.96; that for A68G A84G was -3.98; that for A66C U130G U133A was -1.91.
With G69C C114U the figure was -1.95; with G69C U92G G120C, -3.22; with G63A U133A, -0.918.
G69A G122U: the “polymerase ribozyme fitness (log ratio)” value was -2.62.
With G63U G69C the figure was -4.76.
The value for G63A C115G was -3.51; that for G63A U81C A90U was -4.66; that for G63U C82A C104U A108C was -6.05.
With C64U A74C, the “polymerase ribozyme fitness (log ratio)” value is -0.717.
The value for C64U A111C was 0.336; that for C64U A111U was -3.24; that for A66U A68G was -3.88.
With C62U G120A the figure was 1.09; with A66U U106A G117A, -2; with C64G C102U C124U, -6.08.
For the variant G63U C70A G127C, the “polymerase ribozyme fitness (log ratio)” value is -0.596.

The values above are taken from the RNAGym collection of RNA variant scans (doi:10.1073/pnas.2313332121).
